Values of other authors in PMC9028781.

Legend:
[1] = target: YopB (nanodisc-embedded) (Yersinia pestis) (UniProt Q06114)
[2] = target: Substance P (Homo sapiens) (UniProt P20366)
Chain of Substance P (Homo sapiens) (P20366 whole entry, looked up): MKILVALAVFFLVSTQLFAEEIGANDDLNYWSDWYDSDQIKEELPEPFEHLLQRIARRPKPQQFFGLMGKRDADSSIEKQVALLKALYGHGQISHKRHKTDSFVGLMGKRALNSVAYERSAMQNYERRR

Chain of LcrV-EGFP (P0C7U7 whole entry): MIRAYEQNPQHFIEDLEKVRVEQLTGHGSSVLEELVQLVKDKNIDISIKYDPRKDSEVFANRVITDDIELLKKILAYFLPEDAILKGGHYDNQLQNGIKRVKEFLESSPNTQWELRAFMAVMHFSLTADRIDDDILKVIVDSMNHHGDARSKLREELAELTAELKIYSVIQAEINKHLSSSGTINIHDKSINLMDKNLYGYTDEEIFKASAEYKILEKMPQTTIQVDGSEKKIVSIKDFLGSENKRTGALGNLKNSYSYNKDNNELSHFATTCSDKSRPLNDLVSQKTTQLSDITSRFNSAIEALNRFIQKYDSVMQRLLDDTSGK
Chain of Neurokinin-1 receptor (NK1R, nanodisc-embedded) (P25103 whole entry): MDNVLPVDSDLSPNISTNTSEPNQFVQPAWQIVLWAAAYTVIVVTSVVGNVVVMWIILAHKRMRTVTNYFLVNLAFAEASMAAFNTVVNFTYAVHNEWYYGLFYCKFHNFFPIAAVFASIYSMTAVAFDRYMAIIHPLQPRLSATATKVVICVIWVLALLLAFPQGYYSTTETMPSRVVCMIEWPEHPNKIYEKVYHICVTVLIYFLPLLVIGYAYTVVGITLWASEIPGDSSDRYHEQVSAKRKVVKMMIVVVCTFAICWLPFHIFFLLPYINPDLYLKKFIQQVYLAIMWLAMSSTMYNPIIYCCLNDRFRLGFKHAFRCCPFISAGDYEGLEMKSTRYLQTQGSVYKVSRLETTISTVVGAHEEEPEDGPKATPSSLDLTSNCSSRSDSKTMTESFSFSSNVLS
Chain of YopB (nanodisc-embedded) (Yersinia pestis) (Q06114 whole entry): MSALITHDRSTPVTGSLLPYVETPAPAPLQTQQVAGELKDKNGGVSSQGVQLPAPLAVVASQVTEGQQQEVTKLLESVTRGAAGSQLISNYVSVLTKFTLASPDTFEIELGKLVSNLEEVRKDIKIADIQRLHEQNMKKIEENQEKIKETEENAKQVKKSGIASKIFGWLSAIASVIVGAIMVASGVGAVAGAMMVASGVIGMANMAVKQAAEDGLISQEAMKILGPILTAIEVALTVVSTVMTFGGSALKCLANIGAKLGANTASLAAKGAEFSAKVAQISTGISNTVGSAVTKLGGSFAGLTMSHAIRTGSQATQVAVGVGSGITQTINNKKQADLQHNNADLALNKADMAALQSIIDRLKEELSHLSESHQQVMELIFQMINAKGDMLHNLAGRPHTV

Substance	Kd [1] [µM]	Kd [2] [µM]
LcrV-EGFP (from UniProt P0C7U7)	0.02	
Neurokinin-1 receptor (NK1R, nanodisc-embedded) (from UniProt P25103)		0.083
